How the values were obtained:
Experiment in all cases: anti-FLAG co-IP from lysate of N-FLAG B3GNT2 cells, mass spectrometry
PDIA4 = target: T1, PDIA4 (human, UniProt P13667 21-645)
T1 construct: also called XP_006716248.1
T1 sequence (looked up): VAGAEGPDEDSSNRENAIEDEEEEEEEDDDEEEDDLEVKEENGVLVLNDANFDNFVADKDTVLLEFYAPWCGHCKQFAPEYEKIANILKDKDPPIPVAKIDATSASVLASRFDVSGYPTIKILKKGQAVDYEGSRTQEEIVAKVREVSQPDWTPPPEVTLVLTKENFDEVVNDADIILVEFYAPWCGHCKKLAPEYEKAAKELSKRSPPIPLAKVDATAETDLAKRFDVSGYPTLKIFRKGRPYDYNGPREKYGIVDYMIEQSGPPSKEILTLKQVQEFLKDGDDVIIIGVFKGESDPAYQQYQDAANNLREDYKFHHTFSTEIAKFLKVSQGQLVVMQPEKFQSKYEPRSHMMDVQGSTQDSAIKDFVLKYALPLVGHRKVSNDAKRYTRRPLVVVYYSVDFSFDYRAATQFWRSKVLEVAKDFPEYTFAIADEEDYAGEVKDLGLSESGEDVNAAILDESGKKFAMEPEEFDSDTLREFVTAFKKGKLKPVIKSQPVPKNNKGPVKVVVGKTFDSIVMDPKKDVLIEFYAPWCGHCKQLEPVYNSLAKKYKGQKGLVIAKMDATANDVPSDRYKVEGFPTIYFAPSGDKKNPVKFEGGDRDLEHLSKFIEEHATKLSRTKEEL
Description: (§1) Cells were plated in 10-cm cell culture dishes and grown to 60-80% confluency. For each condition, two biological replicates were harvested for co-IP. Cells were washed with PBS and 4 mL of lysis buffer (20 mM HEPES, 1% Triton X-100, 150 mM NaCl, 1 mM EDTA, and 10% glycerol) containing protease inhibitor cocktail was added. Cells were scraped and lysate was incubated at 4° C. under rotary agitation for 1 h. Lysate was centrifuged at 14,000×g for 10 min at 4° C. Supernatant was transferred to a new tube and an aliquot was taken as the input. […] For Western blots, 10 μg/mL Chicken Anti-FLAG (Aves labs ET-DY100) and IgY control (R&D Systems AB-101-C) antibodies were biotinylated (Thermo Fisher Scientific 90407) and added to the respective conditions. Lysates with antibodies were incubated at 4° C. under rotary agitation overnight. For each mL of lysate, 50 μL of Pierce Protein A/G Magnetic Beads (Mass spectrometry; Thermo Fisher Scientific 88803) or Pierce Streptavidin Magnetic Beads (Western blot; Thermo Fisher Scientific 88817) was washed twice with lysis buffer. Lysates with antibodies were added to the beads and incubated at 4° C. under rotary agitation for 4 h. Beads were washed with lysis buffer 3 times and resuspended in lysis buffer for storage.
(§2) Magnetic beads were resuspended in 100 mM Tris pH 7.8, reduced, alkylated and digested with trypsin at 37° ° C. overnight. This solution was subjected to solid phase extraction to concentrate the peptides and remove unwanted reagents followed by injection onto a Shimadzu HPLC with fraction collector. Eight fractions were collected and after concentration were injected on a Waters NanoAcquity HPLC equipped with a self-packed Aeris 3 μm C18 analytical column 0.075 mm by 20 cm, (Phenomenex). Peptides were eluted using standard reverse-phase gradients. The effluent from the column was analyzed using a Thermo Orbitrap Elite mass spectrometer (nanospray configuration) operated in a data dependent manner for 54 minutes. The resulting fragmentation spectra were correlated against the known database using Proteome Discover 1.4 (Thermo Fisher Scientific).

TRAFD1 = target: T2, TRAFD1 (human, UniProt O14545 2-582)
T2 construct: also called NP_006691.1
T2 sequence (looked up): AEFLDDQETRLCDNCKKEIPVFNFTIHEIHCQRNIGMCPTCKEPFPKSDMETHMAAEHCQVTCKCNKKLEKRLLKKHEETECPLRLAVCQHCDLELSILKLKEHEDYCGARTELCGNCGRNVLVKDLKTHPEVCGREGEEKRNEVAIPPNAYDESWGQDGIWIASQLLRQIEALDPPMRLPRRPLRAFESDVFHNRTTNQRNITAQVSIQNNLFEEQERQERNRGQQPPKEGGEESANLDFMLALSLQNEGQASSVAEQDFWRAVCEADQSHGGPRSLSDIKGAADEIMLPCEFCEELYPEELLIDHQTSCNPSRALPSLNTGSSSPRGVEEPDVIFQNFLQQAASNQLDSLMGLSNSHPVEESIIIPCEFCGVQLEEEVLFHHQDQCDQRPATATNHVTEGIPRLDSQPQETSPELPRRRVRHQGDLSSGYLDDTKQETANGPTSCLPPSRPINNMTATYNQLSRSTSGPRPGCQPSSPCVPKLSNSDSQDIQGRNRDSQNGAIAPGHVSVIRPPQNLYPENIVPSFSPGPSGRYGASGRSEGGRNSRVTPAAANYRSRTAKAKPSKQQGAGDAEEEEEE
Description: as §1, §2

IFI16 = target: T3, IFI16 (human, UniProt Q16666-2 1-729, limits assumed)
T3 construct: also called NP_001193496.1 (+3)
T3 sequence (looked up): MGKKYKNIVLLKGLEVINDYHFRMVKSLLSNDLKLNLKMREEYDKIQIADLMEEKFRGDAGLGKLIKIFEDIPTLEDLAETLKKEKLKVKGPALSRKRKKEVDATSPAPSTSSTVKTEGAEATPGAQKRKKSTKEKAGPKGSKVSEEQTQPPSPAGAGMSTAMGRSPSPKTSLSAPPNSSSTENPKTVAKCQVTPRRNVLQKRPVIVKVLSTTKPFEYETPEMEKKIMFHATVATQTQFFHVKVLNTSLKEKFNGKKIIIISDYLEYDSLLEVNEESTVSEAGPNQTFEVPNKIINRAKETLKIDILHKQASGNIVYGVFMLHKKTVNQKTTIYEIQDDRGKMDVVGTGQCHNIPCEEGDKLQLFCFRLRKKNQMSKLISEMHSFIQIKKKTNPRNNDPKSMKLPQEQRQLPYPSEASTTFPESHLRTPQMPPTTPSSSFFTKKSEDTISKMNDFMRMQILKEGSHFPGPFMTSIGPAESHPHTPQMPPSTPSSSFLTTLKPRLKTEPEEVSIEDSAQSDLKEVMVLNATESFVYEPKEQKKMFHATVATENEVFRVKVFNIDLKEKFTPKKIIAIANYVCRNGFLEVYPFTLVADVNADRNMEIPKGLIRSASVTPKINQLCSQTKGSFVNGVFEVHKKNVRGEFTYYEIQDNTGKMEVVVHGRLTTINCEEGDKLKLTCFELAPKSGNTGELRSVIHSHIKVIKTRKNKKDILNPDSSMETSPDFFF
Description: as §1, §2

IPO7 = target: T4, IPO7 (human, UniProt O95373 1-1038)
T4 construct: also called NP_006382.1
T4 sequence (O95373 whole entry): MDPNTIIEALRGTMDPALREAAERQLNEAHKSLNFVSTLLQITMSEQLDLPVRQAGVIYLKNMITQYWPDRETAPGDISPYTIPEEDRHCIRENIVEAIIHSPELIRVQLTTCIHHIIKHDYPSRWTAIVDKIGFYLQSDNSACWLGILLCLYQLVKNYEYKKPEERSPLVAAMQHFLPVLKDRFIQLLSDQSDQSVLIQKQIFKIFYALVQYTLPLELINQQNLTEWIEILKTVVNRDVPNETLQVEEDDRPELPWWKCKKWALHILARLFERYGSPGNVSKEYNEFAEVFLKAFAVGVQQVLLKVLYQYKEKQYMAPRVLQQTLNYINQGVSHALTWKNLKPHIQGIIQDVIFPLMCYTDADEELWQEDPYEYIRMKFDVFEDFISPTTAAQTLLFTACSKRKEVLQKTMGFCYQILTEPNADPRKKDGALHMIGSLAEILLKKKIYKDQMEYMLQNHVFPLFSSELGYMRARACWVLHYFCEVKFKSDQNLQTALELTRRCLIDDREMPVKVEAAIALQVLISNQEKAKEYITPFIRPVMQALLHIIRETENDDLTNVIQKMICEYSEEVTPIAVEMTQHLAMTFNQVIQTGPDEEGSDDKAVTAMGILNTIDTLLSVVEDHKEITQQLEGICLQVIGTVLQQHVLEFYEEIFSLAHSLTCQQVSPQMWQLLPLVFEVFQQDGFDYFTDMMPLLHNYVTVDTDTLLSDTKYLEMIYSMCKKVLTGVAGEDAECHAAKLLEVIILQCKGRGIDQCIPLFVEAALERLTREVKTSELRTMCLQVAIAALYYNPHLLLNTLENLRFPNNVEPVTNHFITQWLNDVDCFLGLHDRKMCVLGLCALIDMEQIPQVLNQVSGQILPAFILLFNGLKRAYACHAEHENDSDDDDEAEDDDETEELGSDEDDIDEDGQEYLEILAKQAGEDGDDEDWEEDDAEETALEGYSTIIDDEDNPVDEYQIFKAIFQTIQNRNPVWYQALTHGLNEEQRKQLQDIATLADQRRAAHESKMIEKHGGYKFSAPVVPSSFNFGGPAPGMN
Description: as §1, §2

co-IP mass spectrometry count (PDIA4): 0
co-IP mass spectrometry count (TRAFD1): 0
co-IP mass spectrometry count (IFI16): 0
co-IP mass spectrometry count (IPO7): 0
B1: N-terminal FLAG tagged B3GNT2 (enzyme, human, UniProt Q9NY97 1-397, looked up)
chain: MSVGRRRIKLLGILMMANVFIYFIMEVSKSSSQEKNGKGEVIIPKEKFWKISTPPEAYWNREQEKLNRQYNPILSMLTNQTGEAGRLSNISHLNYCEPDLRVTSVVTGFNNLPDRFKDFLLYLRCRNYSLLIDQPDKCAKKPFLLLAIKSLTPHFARRQAIRESWGQESNAGNQTVVRVFLLGQTPPEDNHPDLSDMLKFESEKHQDILMWNYRDTFFNLSLKEVLFLRWVSTSCPDTEFVFKGDDDVFVNTHHILNYLNSLSKTKAKDLFIGDVIHNAGPHRDKKLKYYIPEVVYSGLYPPYAGGGGFLYSGHLALRLYHITDQVHLYPIDDVYTGMCLQKLGLVPEKHKGFRTFDIEEKNKNNICSYVDLMLVHSRKPQEMIDIWSQLQSAHLKC
notes: Bait of the co-IP; pulled down from cell lysate with mouse anti-FLAG antibody; also called N-FLAG B3GNT2; N-term FLAG; not shown: N-terminal FLAG tag
